{"source": "patent US20250108138A1", "about": "“TH[…] CONJUGATES” (MERCK PATENT GMBH, priority 2022, published 2025)", "key": {"FR": {"target": "T1, FR (Homo sapiens, UniProt P15328)", "T1 construct": "FR-positive IGROV-1 cells (human ovarian carcinoma cell line); endogenous in cells; host or cells: IGROV-1 human ovarian carcinoma cells", "T1 sequence (P15328 25-234)": "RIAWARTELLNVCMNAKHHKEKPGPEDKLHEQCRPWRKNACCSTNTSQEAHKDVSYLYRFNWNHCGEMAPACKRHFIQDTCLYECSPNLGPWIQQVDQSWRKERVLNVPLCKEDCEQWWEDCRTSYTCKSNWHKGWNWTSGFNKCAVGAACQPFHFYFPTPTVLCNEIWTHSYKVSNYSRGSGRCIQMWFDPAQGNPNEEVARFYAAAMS", "experiment": "FR-binding affinity (KD) on FR-positive IGROV-1 cells", "conditions": "1 h at 4° C., specific binding (excess folic acid block)", "method": "The determination of the KD values was performed as previously reported (Deberle, L. M. et al; Bioconj Chem 2021, 32, p. 1617). FR-positive IGROV-1 cells (human ovarian carcinoma cell line, kindly provided by Dr. Gerrit Janssen, Free University Medical Center Amsterdam, The Netherlands) were seeded in 48-well plates (2.5×10^5 cells/well) in 500 μL FFRPMI medium with supplements. The cells were incubated at 37° C. and 5% CO2 to allow cell adhesion overnight. The experiment was performed on ice using ice-cold medium and buffer solutions. After removal of the supernatant, the cells were rinsed once with PBS prior to the addition of FFRPMI medium without supplements (450 μL/well). The respective folate radioconjugate of the disclosure (20 MBq/nmol) was added to each well at variable concentrations (in the range of 0.1 to 500 nM, 50 μL per well). […] The IGROV-1 tumor cells were incubated for 1 h at 4° C. on a shaker, followed by removal of the supernatants and rinsing the cells twice with PBS. After lysis of the cells with NaOH solution (1 M, aq., 500 μL), the samples were counted for activity in a γ-counter (Wallac Wizard 1480, Perkin Elmer). The counts per minute (cpm) of the specific binding (determined by subtracting the cpm of the unspecific binding from the cpm of total binding), were plotted against the molar concentration of the added folate radioconjugates of the disclosure. […]"}, "[1]": {"target": "T2, human serum albumin (HSA) (Homo sapiens, UniProt P02768)", "T2 construct": "tissue Stiftung Blutspende SRK Aargau-Solothurn, Switzerland; host or cells: human blood plasma", "T2 sequence (P02768 25-609)": "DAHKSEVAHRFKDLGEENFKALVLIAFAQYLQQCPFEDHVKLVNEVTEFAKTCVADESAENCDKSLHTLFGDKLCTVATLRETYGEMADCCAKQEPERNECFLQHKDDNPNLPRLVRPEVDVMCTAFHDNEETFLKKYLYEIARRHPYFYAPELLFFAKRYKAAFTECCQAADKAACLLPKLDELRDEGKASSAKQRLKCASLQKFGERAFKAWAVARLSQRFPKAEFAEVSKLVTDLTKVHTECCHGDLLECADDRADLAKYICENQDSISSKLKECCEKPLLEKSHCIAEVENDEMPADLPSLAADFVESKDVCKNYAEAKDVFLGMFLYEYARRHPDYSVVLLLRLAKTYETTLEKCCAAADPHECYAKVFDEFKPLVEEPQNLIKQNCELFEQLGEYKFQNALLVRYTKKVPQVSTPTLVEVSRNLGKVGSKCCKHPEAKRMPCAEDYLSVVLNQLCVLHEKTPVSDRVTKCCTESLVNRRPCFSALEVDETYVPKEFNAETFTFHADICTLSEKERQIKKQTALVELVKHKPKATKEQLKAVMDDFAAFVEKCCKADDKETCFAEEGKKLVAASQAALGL", "experiment": "Relative albumin-binding affinity (B50), human blood plasma", "assay_type": "in vitro ADME", "conditions": "inverse ratio of B50, normalized to [^177Lu]Lu-OxFol-1 (set as 1.0)", "method": "(§1) Relative albumin-binding affinity of the folate radioconjugates of the disclosure: The albumin-binding affinity of the folate radioconjugates of the disclosure was assessed and compared to that of [^177Lu]Lu-OxFol-1. A fixed amount of radioconjugate (50 MBq/nmol), ^˜300 kBq, 15 μL, 0.006 nmol) was added to a defined volume (150 μL) of mouse and human blood plasma and various dilutions thereof in PBS pH 7.4, resulting in defined mouse serum albumin (MSA)-to-folate radioconjugate or human serum albumin (HSA)-to-folate radioconjugate molar concentration ratios ranging from 0.01 to 12′500 and 0.01 to 20′000, respectively. The albumin-bound fraction was determined using an ultrafiltration device as described above.\n(§2) The data were analyzed using a semi-logarithmic plot assuming a maximum binding of 100%. The Hill equation was fitted to the data points and the half-maximum binding (B50) was determined based on the obtained binding curves (GraphPad Prism software, version 8). The relative albumin-binding affinities were defined as the inverse ratio of the B50 value of each radioconjugate of the disclosure to the reference compound [^177Lu]Lu-OxFol-1 (set as 1.0). […] The results were presented as average±SD of 2-3 independent experiments (Table 5)."}, "[2]": {"target": "T3, mouse serum albumin (MSA) (Mus musculus, UniProt P07724)", "T3 construct": "The amount of serum albumin in mouse (MSA) and human (HSA) blood plasma was defined as 550 μM and 800 μM; tissue Rockland Immunochemicals, Inc., USA; host or cells: mouse blood plasma", "T3 sequence (P07724 25-608)": "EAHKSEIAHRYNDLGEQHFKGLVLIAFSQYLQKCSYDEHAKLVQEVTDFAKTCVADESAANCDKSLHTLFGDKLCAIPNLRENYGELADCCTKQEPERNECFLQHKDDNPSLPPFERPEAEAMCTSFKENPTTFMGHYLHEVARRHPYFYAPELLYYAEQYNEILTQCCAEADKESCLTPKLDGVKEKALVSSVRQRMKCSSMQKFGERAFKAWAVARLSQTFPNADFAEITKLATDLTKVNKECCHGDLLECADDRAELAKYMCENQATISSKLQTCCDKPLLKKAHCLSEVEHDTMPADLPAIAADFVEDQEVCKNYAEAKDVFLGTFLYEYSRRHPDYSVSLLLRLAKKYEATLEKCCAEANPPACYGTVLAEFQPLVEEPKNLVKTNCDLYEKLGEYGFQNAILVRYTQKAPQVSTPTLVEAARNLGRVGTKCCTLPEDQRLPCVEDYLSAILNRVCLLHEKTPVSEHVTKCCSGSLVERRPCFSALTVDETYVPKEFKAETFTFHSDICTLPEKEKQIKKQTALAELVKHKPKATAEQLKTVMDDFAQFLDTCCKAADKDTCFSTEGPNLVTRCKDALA", "experiment": "Relative albumin-binding affinity (B50), mouse blood plasma", "assay_type": "in vitro ADME", "conditions": "inverse ratio of B50, normalized to [^177Lu]Lu-OxFol-1 (set as 1.0)", "method": "as §1, §2"}, "[3]": {"target": "T4, albumin in mouse blood plasma (Mus musculus, UniProt P07724)", "T4 construct": "tissue Rockland Immunochemicals, Inc., USA; host or cells: mouse blood plasma", "T4 sequence (P07724 25-608)": "as above", "experiment": "Albumin-bound fraction, ultrafiltration filter assay, mouse blood plasma", "assay_type": "in vitro ADME", "conditions": "37° C., 30 min, percentage of total activity measured", "method": "(§3) Albumin-binding properties were determined in mouse and human blood plasma. The albumin-binding properties of the folate radioconjugates of the disclosure in mouse blood plasma (Rockland Immunochemicals, Inc., USA) and human blood plasma (Stiftung Blutspende SRK Aargau-Solothurn, Switzerland) were determined using an ultrafiltration method (Deberle, L. M. et al., Molecules 2020, 25, (11)). The amount of serum albumin in mouse (MSA) and human (HSA) blood plasma was defined as 550 μM and 800 μM, respectively, based on measurements using a dry chemistry analyzer (DRI-CHEM 4000i, FUJIFILM, Japan). The folate radioconjugates of the disclosure (50 MBq/nmol, ca. 300 kBq, 0.006 nmol in 15 μL) were added to samples of mouse and human blood plasma (150 μL), followed by incubation of the samples at 37° C. for 30 min. The samples were loaded on Amicon centrifugal filters (cut-off of 10 kDa; Merck Millipore) followed by centrifugation (14,000 rcf, 30 min, 4° C.) to allow the separation of the plasma-bound from the plasma-unbound (free) fractions of each sample. […] The activity of the protein-bound fraction as well as the activity in the filtrate and in the filter unit were measured separately in a gamma-counter (Perkin Elmer, Wallac Wizard 1480). The percentage of radioconjugate bound to mouse and human albumin, respectively, was set in relation to the total activity measured (Table 4)."}, "[4]": {"experiment": "n-octanol/PBS distribution coefficient (log D)", "assay_type": "physicochemical", "conditions": "n-octanol/PBS pH 7.4, mean±SD", "method": "Example 5: PBS/n-Octanol Distribution Coefficient (Log D Values) The n-octanol/PBS distribution coefficients (log D values) were determined for each folate radioconjugate of the disclosure and a reference compound in order to assess their hydrophilic/hydrophobic properties. The log D values of the folate radioconjugates of the disclosure (50 MBq/nmol) were determined as previously reported, after dilution in PBS pH 7.4 to obtain an activity concentration of 10 MBq/500 μL. A sample of each radiofolate (ca. 0.5 MBq, 25 μL, 0.01 nmol) was added to a mixture of 1475 μL PBS pH 7.4 and 1500 μL n-octanol. The vials were vortexed vigorously for 1 min followed by centrifugation for 6 min at 2500 rpm for phase separation. An aliquot was taken from each phase and measured in a gamma-counter (Perkin Elmer, Wallac Wizard 1480). The distribution coefficients were calculated as the logarithm of the ratio of counts per minute (cpm) measured in the n-octanol phase relative to the cpm measured in the PBS phase. The results were listed as mean±SD of the data obtained from 3-4 independent experiments, each performed with five replicates."}, "[5]": {"target": "T5, albumin in human blood plasma (Homo sapiens, UniProt P02768)", "T5 construct": "tissue Stiftung Blutspende SRK Aargau-Solothurn, Switzerland; host or cells: human blood plasma", "T5 sequence (P02768 25-609)": "as the sequence (P02768 25-609) above", "experiment": "Albumin-bound fraction, ultrafiltration filter assay, human blood plasma", "assay_type": "in vitro ADME", "conditions": "37° C., 30 min, percentage of total activity measured", "method": "as §3"}}, "data": [{"compound": "Nc1nc2ncc(CNc3ccc(C(=O)N[C@@H](CCC(=O)N[C@@H](CCCCNC(=O)CN4CCN(CC(=O)O)CCN(CC(=O)O)CCN(CC(=O)O)CC4)C(=O)N[C@@H](CCCCNC(=O)CCCc4ccc(I)cc4)C(=O)O)C(=O)O)cc3)nc2c(=O)[nH]1", "note": "[[^177Lu]Lu-OxFol-1, metal not drawn]", "values": [{"measurement": "Kd", "setting": "FR", "result": 2.8, "unit": "nM"}, {"measurement": "Relative albumin-binding affinity, human plasma", "setting": "[1]", "result": 1.00}, {"measurement": "Relative albumin-binding affinity, mouse plasma", "setting": "[2]", "result": 1.00}, {"measurement": "Albumin-bound fraction, mouse blood plasma", "setting": "[3]", "result": 90, "unit": "%"}, {"measurement": "logD Value", "setting": "[4]", "result": "−4.2 ± 0.2"}, {"measurement": "Albumin-bound fraction, human blood plasma", "setting": "[5]", "result": 96, "unit": "%"}]}]}
